No end group written: not given here.

The values below come from US7078514 (dated 2006).

The target of this assay is T1, recombinant chicken GHRH receptor (chicken).
T1 construct: Full-length cloned receptor; also called cGHRH receptor; cloned chicken GHRH receptor
T1 chain: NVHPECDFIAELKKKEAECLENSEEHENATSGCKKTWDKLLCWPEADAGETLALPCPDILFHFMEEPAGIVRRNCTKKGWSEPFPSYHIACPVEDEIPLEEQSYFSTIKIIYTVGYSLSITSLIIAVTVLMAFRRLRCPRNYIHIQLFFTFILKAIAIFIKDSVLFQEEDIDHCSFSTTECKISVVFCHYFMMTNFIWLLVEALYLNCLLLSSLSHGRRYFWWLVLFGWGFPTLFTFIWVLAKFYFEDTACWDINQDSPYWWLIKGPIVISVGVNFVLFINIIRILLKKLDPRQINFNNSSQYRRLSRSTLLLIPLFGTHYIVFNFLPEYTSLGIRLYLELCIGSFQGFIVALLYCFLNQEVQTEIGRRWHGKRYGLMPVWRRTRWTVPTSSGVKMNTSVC
In words: competition with labeled hGHRH at recombinant chicken GHRH receptor.

B1: chicken GHRH polypeptide (asparagine^21), previously reported chicken GHRH (ligand)
peptide: HADGIFSKAYRKLLGQLSARNYLHSLMAKRVGGASSGLGDEAEPLS
modifications: not fully specified
notes: also called cGHRH(Asp^21); published polypeptide
As to B1, the binding result is given as “no binding”.
